# Experimental data as given in PMC1995591 (Molecular Microbiology, 2007).
# B1: unlabelled kstR 29 bp probe (dsDNA)
# DNA 1: TGCCCACTAGAACGTGTTCTAATAGTGCT
# DNA 2: AGCACTATTAGAACACGTTCTAGTGGGCA
# B2: His6-tagged KstRMtb (Mycobacterium tuberculosis TetR-type regulator Rv3574) (natural protein)
# chain: MSSANTNTSSAPDAPPRAVMKVAVLAESELGSEAQRERRKRILDATMAIASKGGYEAVQMRAVADRADVAVGTLYRYFPSKVHLLVSALGREFSRIDAKTDRSAVAGATPFQRLNFMVGKLNRAMQRNPLLTEAMTRAYVFADASAASEVDQVEKLIDSMFARAMANGEPTEDQYHIARVISDVWLSNLLAWLTRRASATDVSKRLDLAVRLLIGDQDSA
# B3: Rv3531c/Rv3532 probe (dsDNA)
# DNA 1: TCGACACTAGAACGTGTTCCTGTTTTGCG
# DNA 2: CGCAAAACAGGAACACGTTCTAGTGTCGA
# B4: Rv3503c/Rv3504 probe (dsDNA)
# DNA 1: CAGAGACTAGAACGTGTTACAACCGGGAA
# DNA 2: TTCCCGGTTGTAACACGTTCTAGTCTCTG
# B5: Rv3545c/Rv3546 probe (dsDNA)
# DNA 1: ATAGTAATGAAACGTGTTCTAGCCTGGCC
# DNA 2: GGCCAGGCTAGAACACGTTTCATTACTAT
# B6: Rv3520c/Rv3521 probe (dsDNA)
# DNA 1: TGTCGAGTAGAACAGGTTCTAACAACGGT
# DNA 2: ACCGTTGTTAGAACCTGTTCTACTCGACA
# B7: Rv0940c probe (dsDNA)
# DNA 1: GTCAAATTAGAACACGTTCTAATCTCGTT
# DNA 2: AACGAGATTAGAACGTGTTCTAATTTGAC
# B8: Rv3515c/Rv3516 probe (Table 2 prints Rv3515c/Rv3532) (dsDNA)
# DNA 1: ACCAAACTAGAACGTGTTACATTTCTTGA
# DNA 2: TCAAGAAATGTAACACGTTCTAGTTTGGT
# B9: Rv3570c/Rv3571 probe, motif 2 (dsDNA)
# DNA 1: TCATAACTAGAACATGTTACAGAAAACCC
# DNA 2: GGGTTTTCTGTAACATGTTCTAGTTATGA
# B10: Rv1894c/Rv1895 probe (dsDNA)
# DNA 1: ATAGAACTGAAACGTGTTCTAGTTTAGTA
# DNA 2: TACTAAACTAGAACACGTTTCAGTTCTAT
# B11: Rv0953c/Rv0954 probe (dsDNA)
# DNA 1: GCGCAGGTGGAACACGTTCTAATTCGGTG
# DNA 2: CACCGAATTAGAACGTGTTCCACCTGCGC
# B12: Rv3570c/Rv3571 probe, motif 1 (dsDNA)
# DNA 1: GAAAGACTAGAACACGTTCCGATTTGTGT
# DNA 2: ACACAAATCGGAACGTGTTCTAGTCTTTC
# B13: Rv0551c/Rv0552 probe (dsDNA)
# DNA 1: TCCAAATTGCAACACGTTCTAGTCTTGCC
# DNA 2: GGCAAGACTAGAACGTGTTGCAATTTGGA
# B14: Rv0223c probe (dsDNA)
# DNA 1: GCGAAACGAGAACGTGTTCCATTATTAGG
# DNA 2: CCTAATAATGGAACACGTTCTCGTTTCGC
# B15: Rv3573c/Rv3574 (kstR) 29 bp probe (dsDNA)
# DNA 1: TGCCCACTAGAACGTGTTCTAATAGTGCT
# DNA 2: AGCACTATTAGAACACGTTCTAGTGGGCA
# Biological target: T1, His6-KstRMtb (KstR) (Mycobacterium tuberculosis H37Rv, UniProt P96856 22-220)
# T1 sequence: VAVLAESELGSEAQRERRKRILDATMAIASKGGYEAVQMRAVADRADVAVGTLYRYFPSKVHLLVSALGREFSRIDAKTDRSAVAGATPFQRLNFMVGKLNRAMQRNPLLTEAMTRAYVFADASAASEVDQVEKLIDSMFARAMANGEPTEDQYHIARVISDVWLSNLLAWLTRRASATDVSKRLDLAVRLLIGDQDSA
# Assay: competition
row,Binder,binding result
1,B1,binds

# Biological target: the molecule itself
# Assay: SEC
row,Binder,stoichiometry N
1,B2,2

# Biological target: T1, His6-KstRMtb (KstR)
# Assay: EMSA
row,Binder,binding result
1,B3,binds
2,B4,binds
3,B5,binds
4,B6,binds
5,B7,binds
6,B8,binds
7,B9,binds
8,B10,binds
9,B11,binds
10,B12,binds
11,B13,binds
12,B14,no binding
13,B15,binds
